Data as given in US20180335433A1, “COMPOSITIONS TARGETING PKC-THETA AND USES AND METHODS OF TREATING PKC-THETA PATHOLOGIES, ADVERSE IMMUNE RESPONSES AND DISEASES” (La Jolla Institute for Allergy and Immunology, priority 2011, published 2018).

What was measured:
Assay type in all cases: cell-based, mouse
[1] = tested on: Naïve CD4+ T cells from B6 mice, Treg (FoxP3+) cells; experiment: In vitro Treg (FoxP3+) differentiation of retrovirally transduced CD4+ T cells; conditions: Treg-polarizing conditions (IL-2+TGFβ), GFP+FoxP3+ cells
Protocol: (§1) Naïve CD4+ T cells from B6 mice stimulated with anti-CD3 plus anti-CD28 mAbs and differentiated in vitro under Treg-polarizing conditions (IL-2+TGFβ) were retrovirally transduced with empty pMIG vector, or with the indicated PKCθ V3 vectors. Transduced (GFP+) cells were sorted and FoxP3+ cells were analyzed by intracellular staining.
as §1, with “CD4^+” for “CD4+”, “(GFP+)” for “(GFP+) cells were sorted and”, “intracellular staining 8 hours after restimulation. Right panels represent cumulative data showing percentage of GFP+FoxP3+ cells by intracellular” for “intracellular”

[2] = tested on: Naïve CD4+ T cells from B6 mice, Th9 cells; experiment: In vitro Th9 differentiation of retrovirally transduced CD4+ T cells; conditions: Th9-polarizing conditions (IL-4+TGFβ), IL-9-producing cells
Protocol: Naïve CD4^+ T cells from B6 mice stimulated with anti-CD3 plus anti-CD28 mAbs and differentiated in vitro under Th9-polarizing conditions (IL-4+TGFβ) were retrovirally transduced with empty pMIG vector, or with the indicated PKCθ V3 vectors. Transduced (GFP+) cells were sorted and IL-9-producing cells were analyzed by intracellular staining 8 h after restimulation. Cumulative data showing percentage of cytokine-producing. V3-4PA refers to mutation of 4 Pro residues in the Pro-rich motif to Ala and V3-DPR refers to deletion of the Pro-rich motif (ARPPCLPTP).
Th9 cells have been reported to play an important role in promoting allergic diseases such as asthma (J. Asthma 48:115, 2011; Curr. Opin. Immunol. 24:1, 2012. These findings indicate that allergic disease such as asthma can be treated in accordance with the invention.

[3] = tested on: B6 CD4+ T cells, Th2 differentiation; experiment: In vitro Th2 differentiation of retrovirally transduced CD4+ T cells; conditions: ectopic expression, Th2 differentiation conditions
Protocol: (FIG. 6A) OT-II CD4^+ T cells were infected with retrovirus expressing Myc-tagged V3 domain, V3 mutated at P330/1/4/6A (V3-4PA), or PR motif-deleted V3 (V3-ΔPR). Infected cells (green) were harvested, stimulated, and fixed. Conjugates were stained with anti-Myc plus a secondary Alexa 555-coupled antibody (orange), and anti-PKCθ plus a secondary Alexa 647-coupled antibody (red). Cells were analyzed as in FIG. 1A. (FIG. 6B) Quantitative analysis of the results shown in (FIG. 6A) from 30-50 T-APC conjugates. ** p<0.05. (FIG. 6C) MCC-specific T hybridoma cells were cotransfected with indicated vector, together with RE/AP-Luc and β-Gal reporter plasmids. Cells were stimulated and analyzed as in FIG. 1C. […] Cytokine-producing cells were analyzed by intracellular staining 8 h after restimulation. […] Normalized luciferase activity was determined in triplicates. […]
Investigators have reported that the Th2 and Th17 immune responses are compromised in PKCθ^−/− mice, whereas the Th1 response remains relatively intact (Marsland, B. J. et al. J Exp Med 200, 181-189 (2004); Salek-Ardakani, S. et al. J Immunol 173, 6440-6447 (2004); Salek-Ardakani, S., et al. J Immunol 175, 7635-7641 (2005)). Therefore, ectopic expression of V3 was analyzed for inhibition of Th differentiation. […]

B1: V3 domain: amino acid 282-379 of human PKCθ with N-terminal Myc tag, expressed from pMIG retroviral vector (protein)
chain: GINQKLMAEALAMIESTQQARCLRDTEQIFREGPVEIGLPCSIKNEARPPCLPTPGKREPQGISWESPLDEVDKMCHLPEPELNKERPSLQIKLKIED
modifications: left off: small tags and cut ends
notes: amino acid 282-379 of human PKCθ with N-terminal Myc tag, expressed from pMIG retroviral vector
[1]
  promotion of Treg differentiation: ~4 fold
[2]
  effect on differentiation of Th9 cells: interferes
[3]
  inhibition of Th2 differentiation: ~75%
